The values below come from patent publication US20070292411A1 (Human Genome Sciences, published 2007).

B1: monoclonal antibody 7.1.3 (antibody, V domains shown)
VH: QVQLVQSGAEVKKPGASVKVSCKASGYTFTNYDINWVRQAPGQGLEWMGISAYTGNTNYAQKLQGRVTMTTDTSTSTAYMELRSLRSDDTAVYYCVRDYHDSNGYYYFDYWGQGTLVTVS
VL: DIQMIQSPLSLPVIPGEPASMSCRSSRSLLHSNGNNYLEWYLQKPGQSPQLLIYLGSNRASGVPDRFSGSGSGTDFTLKISRVEAEDVGIYYCMQGLQLPWTFGGTKVIKR
B2: TR4-Fc fusion protein (Fc fusion)
chain: ATIKLHDQSIGTQQWEHSPLGELCPPGSHRSERPGACNRCTEGVGYTNASNNLFACLPCTACKSDEEERSPCTTTRNTACQCKPGTFRNDNSAEMCRKCSTGCPRGMVKVKDCTPWSDIECVHKESGNGHNI
notes: not shown: Fc region

The target of assay [1] is B2. Briefly: competition ELISA, inhibition of biotinylated TRAIL binding to captured TR4-Fc; assay 1. The procedure:
(§1) Goat anti-human Fc was diluted to 0.1 micrograms/ml in coating buffer. The Immulon 4 microplate was coated with 100 microliters per well of the Goat anti-human Fc solution and incubated overnight at 4° C. The coating solution was decanted from the plate, and blocking solution was dispensed at 200 microliters per well. The plate was incubated at room temperature for 1 hour. After the 1 hour incubation period, the blocking solution was decanted from the plate and 1 microgram/mL of TR4-Fc was dispensed at 100 microliters/well and incubated for 2 hours at room temperature. After the incubation, the plate was washed five times manually using a Wheaton manifold.
(§2) Hybridoma supernatants were (previously) prepared in a low binding dilution plate using diluent. The supernatants were prepared in duplicate and were diluted from the stock concentration with 2.5 fold dilutions for the 7 subsequent wells. If a purified form of the antibody was available, the starting concentration was 5 micrograms/mL. The positive control (TR4-Fc) was diluted from 5 micrograms/mL. 100 microliters was transferred into the ELISA plate and pre-incubated for 30 minutes at room temperature. […]
(§3) After the one-hour incubation, the plate was decanted and washed with PBST five times and blotted. […] The plate was immediately read at 450 nm using the spectrometer from Molecular Devices.

For assay [2], the target named is B2. Briefly: competition ELISA, inhibition of biotinylated TRAIL binding to captured TR4-Fc; assay 2. The procedure: as §1, §2, §3
In assay [3] the target is T1, Biotinylated TRAIL (Homo sapiens (Human), UniProt P50591 114-281, limits assumed, biotinylated (sites not given)). Kind of assay: competition ELISA, soluble TR4 (TR4-Fc positive control) competing with captured TR4-Fc for biotinylated TRAIL; assay 1. The procedure: as §1, §2, §3
T1 sequence (P50591 114-281 limits assumed): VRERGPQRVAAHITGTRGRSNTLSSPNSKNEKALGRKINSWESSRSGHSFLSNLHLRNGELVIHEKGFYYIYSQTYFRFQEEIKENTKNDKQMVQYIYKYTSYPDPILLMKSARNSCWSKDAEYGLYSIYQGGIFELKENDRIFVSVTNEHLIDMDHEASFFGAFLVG
For assay [4], the target named is T1, Biotinylated TRAIL. Kind of assay: competition ELISA, soluble TR4 (TR4-Fc positive control) competing with captured TR4-Fc for biotinylated TRAIL; assay 2. As for the experimental part:
as §1, §2, §3

For B1, the IC50 in assay [1] was 0.152 µg/mL; in assay [2] it was 0.068 µg/mL.

Consider B2, for which the IC50 in assay [3] stood at 0.491 µg/mL; in assay [4], 0.284 µg/mL.
